# T1: Pantoea dispersa 68J sucrose isomerase (SI), mature, SEQ ID NO: 10, carboxy-terminal 6×His tag (SEQ ID NO: 52) (Pantoea dispersa, UniProt Q6XNK6)
# T1 sequence (Q6XNK6 34-598): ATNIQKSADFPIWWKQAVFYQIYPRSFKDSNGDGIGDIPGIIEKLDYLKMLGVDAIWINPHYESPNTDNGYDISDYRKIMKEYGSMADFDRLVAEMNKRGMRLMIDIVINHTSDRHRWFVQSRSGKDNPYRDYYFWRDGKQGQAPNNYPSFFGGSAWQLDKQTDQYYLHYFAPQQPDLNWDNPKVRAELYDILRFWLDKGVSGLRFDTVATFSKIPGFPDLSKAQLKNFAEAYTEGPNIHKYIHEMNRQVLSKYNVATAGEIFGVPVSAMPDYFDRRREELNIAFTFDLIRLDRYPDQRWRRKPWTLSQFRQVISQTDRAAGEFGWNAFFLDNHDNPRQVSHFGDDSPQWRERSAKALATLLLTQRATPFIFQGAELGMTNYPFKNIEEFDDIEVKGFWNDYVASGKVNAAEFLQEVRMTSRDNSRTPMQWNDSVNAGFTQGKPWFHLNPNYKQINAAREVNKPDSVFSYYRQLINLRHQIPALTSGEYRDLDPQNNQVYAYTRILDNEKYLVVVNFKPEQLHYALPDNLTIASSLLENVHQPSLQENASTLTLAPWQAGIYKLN
# T2: Klebsiella sp. 14S sucrose isomerase (SI), carboxy-terminal 6×His tag (SEQ ID NO: 52) (Klebsiella planticola, UniProt Q6XKX6)
# T2 sequence (Q6XKX6 29-598): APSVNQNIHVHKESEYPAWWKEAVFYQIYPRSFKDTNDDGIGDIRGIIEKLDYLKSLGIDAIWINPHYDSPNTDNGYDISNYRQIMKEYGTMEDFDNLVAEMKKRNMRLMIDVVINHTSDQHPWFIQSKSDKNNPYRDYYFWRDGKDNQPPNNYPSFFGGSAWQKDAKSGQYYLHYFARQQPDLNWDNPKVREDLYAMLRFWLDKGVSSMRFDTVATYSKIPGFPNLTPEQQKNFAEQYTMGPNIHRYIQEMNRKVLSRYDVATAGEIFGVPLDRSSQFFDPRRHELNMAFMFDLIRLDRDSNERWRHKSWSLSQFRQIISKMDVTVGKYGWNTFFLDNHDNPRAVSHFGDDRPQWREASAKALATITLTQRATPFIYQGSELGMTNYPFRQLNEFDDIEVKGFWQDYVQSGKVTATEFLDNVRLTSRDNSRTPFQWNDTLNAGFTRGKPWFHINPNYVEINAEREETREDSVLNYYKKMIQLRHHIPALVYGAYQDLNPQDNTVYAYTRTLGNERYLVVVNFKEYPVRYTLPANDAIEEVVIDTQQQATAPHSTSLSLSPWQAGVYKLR
# B1: P. dispersa SI: sucrose isomerase cloned from bacterial isolate 68J, SEQ ID NO: 8, mature polypeptide SEQ ID NO: 10 (protein)
# chain: MFLNGFKTVIALTMASSFYLAASPLTKPSTPIAATNIQKSADFPIWWKQAVFYQIYPRSFKDSNGDGIGDIPGIIEKLDYLKMLGVDAIWINPHYESPNTDNGYDISDYRKIMKEYGSMADFDRLVAEMNKRGMRLMIDIVINHTSDRHRWFVQSRSGKDNPYRDYYFWRDGKQGQAPNNYPSFFGGSAWQLDKQTDQYYLHYFAPQQPDLNWDNPKVRAELYDILRFWLDKGVSGLRFDTVATFSKIPGFPDLSKAQLKNFAEAYTEGPNIHKYIHEMNRQVLSKYNVATAGEIFGVPVSAMPDYFDRRREELNIAFTFDLIRLDRYPDQRWRRKPWTLSQFRQVISQTDRAAGEFGWNAFFLDNHDNPRQVSHFGDDSPQWRERSAKALATLLLTQRATPFIFQGAELGMTNYPFKNIEEFDDIEVKGFWNDYVASGKVNAAEFLQEVRMTSRDNSRTPMQWNDSVNAGFTQGKPWFHLNPNYKQINAARXVNKPDSVFSYYRQLINLRHQIPALTSGEYRDLDPQNNQVYAYTRILDNEKYLVVVNFKPEQLHYALPDNLTIASSLLENVHQPSLQENASTLTLAPWQAGIYKLN
# modifications: not fully specified; X: residue not identified in the source
# How the values were obtained:
# [1] = target: T1, Pantoea dispersa 68J sucrose isomerase (SI), mature, SEQ ID NO: 10, carboxy-terminal 6×His tag (SEQ ID NO: 52); test: Sucrose isomerase kinetics, purified SI from P. dispersa 68J (isomaltulose production), with or without glucose/fructose; type: biochemical; details: sucrose, isomaltulose production
# Procedure: (§1) The pET24b vector introduces a carboxy-terminal 6×His tag (SEQ ID NO: 52) on expressed proteins, which were purified by adsorption to Ni-NTA agarose (Qiagen) and elution with 25 mM NaH2PO4, 150 mM NaCl, 125 mM imidazole buffer (pH8.0) following the manufacturer's instructions. For storage, the eluted solution was diluted with 50% glycerol. The purity of SI proteins was tested by SDS-PAGE as described below. A batch procedure using Ni-NTA agarose in suspension yielded predominantly (80-95%) SI with a background of several other protein bands. A procedure using Ni-NTA agarose in adsorption columns yielded preparations containing a single protein band. Unless otherwise specified, this is the form of the purified SI enzymes used for biochemical characterisation.
# (§2) Enzyme activities were measured by incubating 5 μl of purified enzyme with 95 μL of sucrose solution at a final concentration of 584 mM in 0.1 M citrate/phosphate buffer (pH 6.0) at 30° C. Sugar profiles in the reaction mix were analysed at intervals by CE as described previously. One unit (U) of SI activity was defined as the amount of enzyme that could release 1 μmol of isomaltulose in one minute at the initial stage of the reaction.
# (§3) SI activity was measured by incubating the purified enzyme with different sucrose concentrations (3, 6, 15, 58, 146, 292, 584, 877, 1169 and 1461 mM) under standard assay conditions, and also with addition of glucose, fructose or both to a final concentration of 277 mM. Data were analyzed according to the method of Lineweaver and Burk (Voet and Voet, 1995) to calculate Km and Vmax values.
# [2] = tested on: Klebsiella sp. LX3 sucrose isomerase; details: isomaltulose product; Zhang et al. 2002; cited from earlier work
# [3] = tested on: Klebsiella sp. sucrose isomerase; details: isomaltulose product; Park et al. 1996; cited from earlier work
# [4] = target: T2, Klebsiella sp. 14S sucrose isomerase (SI), carboxy-terminal 6×His tag (SEQ ID NO: 52); test: Sucrose isomerase kinetics, purified SI from Klebsiella sp. 14S (isomaltulose production), with or without glucose/fructose; type: biochemical; details: sucrose, isomaltulose production, pH 6.0, 30° C., Lineweaver and Burk
# Procedure: as §1, with “Unless otherwise specified, this is the form of the purified SI enzymes used for biochemical characterisation.” left out
# Enzyme activities were measured by incubating 5 μl of purified enzyme with 95 μL of sucrose solution at a final concentration of 584 mM in 0.1 M citrate/phosphate buffer (pH 6.0) at 30° C. Sugar profiles in the reaction mix were analysed at intervals by CE as described previously. […]
# as §3
# [5] = tested on: Serratia plymuthica ATCC 15928 sucrose isomerase; details: isomaltulose product; Véronèse & Perlot 1999; cited from earlier work
# [6] = tested on: Pseudomonas mesoacidophila MX-45 sucrose isomerase; details: trehalulose product; Nagai et al. 1994; cited from earlier work
# [7] = Glucose and fructose tested as substrates of the purified enzyme; type: biochemical; details: 30° C., 30 minutes, pH 3.0 to 7.0
# Procedure: (§4) Isomaltulase activity of the purified enzyme was investigated by incubation with 50 mM isomaltulose at 30° C. for 30 minutes at each of pH 3.0, 4.0, 5.0, 6.0 and 7.0. Glucose and fructose were tested as substrates under the same reaction conditions.
# [8] = Isomaltulase activity of the purified enzyme; type: biochemical; details: 50 mM isomaltulose, 30° C., 30 minutes, pH 3.0 to 7.0
# Procedure: as §4
# [9] = Storage stability of purified SI proteins; type: physicochemical
# Procedure: The purified fresh enzymes from SDS-PAGE had specific activities for isomaltulose production of: E. rhapontici: 35 U mg^−1 protein, Klebsiella sp.: 95 U mg^−1 protein and P. dispersa: 632 U mg^−1 protein. The purified SI from E. rhapontici lost function during overnight storage at −20° C. in elution buffer diluted with 50% glycerol. In contrast, the purified enzymes from 14S or P. dispersa retained 100% of the fresh enzyme efficiency for isomaltulose production after 6-month storage at −20° C., or 60% after 15-day storage at room temperature in the same buffer. Because of instability, the E. rhapontici SI was not characterised further in purified form. Cheetham et al., (1984) found substantial differences between E. rhapontici strains for SI stability in immobilized cells, and the enzyme from strain NCPPB 1578 was stable in purified form (Cheetham, 1984).
# as §1
# [10] = Conversion of sucrose into isomaltulose by E. coli cells expressing cloned SI genes; type: cell-based
# Procedure: The three sucrose isomerase genes in the pCR®2.1 vector were cut and cloned into pGEM®-3Zf(+) then into pET 24b vector (Novagen) for expression in E. coli BL21(DE3) strain. Five mL LB medium with 50 μg/mL kanamycin was used for the BL21(DE3) cell culture. Fifteen cultures per construct were set up initially. Cells were grown at 37° C. at 225 rpm shaking. Six to ten cultures per construct, with OD600 1.000±0.005, were selected for further induction. After 0.5 mL was sampled from each culture, IPTG was added to the culture to a final concentration of 1.0 mM. Incubation of the cultures was continued for another 3 hours. The induced cultures only with OD600 1.750±0.005 were further selected for sucrose conversion analysis and protein measurement, allowing analysis of three replicate cultures per construct. From each of the selected IPTG-induced cultures, 1.5 mL was sampled for protein quantification, 0.5 mL for protein SDS-PAGE, 1.0 mL for quantification of conversion efficiency from sucrose into isomaltulose.
# The 1.0 mL culture was centrifuged, then resuspended in citrate/phosphate (pH 6.0) buffered 50% sucrose solution and assayed for isomaltulose conversion by CE analysis as described above. Conversion ratio was calculated by sucrose peak area and isomaltulose peak area normalised against standards of known concentration, using the software of Beckman P/ACE 5000 Series C.E. System.
# Fifteen cultures per construct were set up in 5 mL LB medium (Sambrook and Russell, 2001) with 50 μg/mL kanamycin in a 30 mL universal tube. Cells were grown at 37° C. at 225 rpm shaking. Six to ten cultures per construct, with OD600=1.00 were selected for further induction. After 0.5 mL was sampled from each culture, IPTG was added to a final concentration of 0.5 mM and incubation of the cultures was continued for another 3 h at 28° C. This allowed selection of three replicate cultures per construct with the same OD600 for sucrose conversion analysis and protein measurement. From each of the selected cultures, 1.5 mL was sampled for protein quantification, 0.5 mL for protein SDS-PAGE, and 1.0 mL for quantification of conversion efficiency from sucrose into isomaltulose. For SI protein purification experiment, the culture volume was scaled up to 25 mL in a 250 mL flask.
# The 1.0 mL culture sample was centrifuged at 12,000×g for 1 min, then resuspended in 5 mL of 0.1 M citrate/phosphate (pH 6.0) buffered 50% sucrose solution and incubated for 4 h at 37° C. with 225 rpm shaking. Conversion ratio was calculated from sucrose and isomaltulose peak areas normalised against standards of known concentration, using a Beckman P/ACE 5000 CE as described previously herein.
# [11] = Assay of isolated (purified) SI enzyme activity; type: biochemical
# Procedure: as §1, §2
# The enzymes were incubated with sucrose at different pH ranging from 2.0 to 10.6. The solution of pH 2.0 was buffered in 0.2 M KCl; pH 3.0 to pH 9.0 were in 0.1 M citrate/phosphate buffer; pH 10.0 to pH 10.6 were in 0.2 M glycine buffer. The effect of temperature from 10° C. to 70° C. was measured at pH 6.0. […]
# [12] = E. coli, pET 24b, same expression conditions
molecule,measurement,setting,value
"OC[C@H]1O[C@@](CO)(O[C@H]2O[C@H](CO)[C@@H](O)[C@H](O)[C@H]2O)[C@@H](O)[C@@H]1O [sucrose, α-D-glucosyl-1,2-D-fructose]",Vmax,[1],637 μmoles isomaltulose/mg protein/min
same,Vmax,"[1]; pH 6.0, 30° C., Lineweaver and Burk",637 U mg^−1
same,Km,[2],54.6 mM
same,Vmax,[3],110 U mg^−1
same,Vmax,[4],100 U mg^−1
same,Km,[5],65 mM
same,Vmax,[5],120 U mg^−1
same,Km,[6],19.2 mM
B1,product from glucose and fructose as substrates,[7],no product was detected
same,hydrolysis of isomaltulose,[8],did not hydrolyse isomaltulose
same,fresh enzyme efficiency for isomaltulose production retained,"[9]; 6-month storage at −20° C., elution buffer with 50% glycerol",100%
same,fresh enzyme efficiency for isomaltulose production retained,"[9]; 15-day storage at room temperature, same buffer",60%
same,"conversion efficiency from sucrose to isomaltulose, times that of the 14S (Klebsiella sp.) gene product/clone",[10]; [12],18 times
same,"conversion efficiency from sucrose to isomaltulose, times that of the Erwinia rhapontici gene product/clone",[10]; [12],10 times
same,proportions of glucose and fructose generated,[10]; compared with 14S (Klebsiella sp.) and Erwinia rhapontici SIs,smaller proportions of glucose and fructose
same,"efficiency of the soluble enzyme, times that of the Erwinia and Klebsiella enzymes","[10]; intact cell assay, estimated",6-38 times
same,"monosaccharides, share of the products",[11]; from pH 4 to 8,less than 20%
same,"activity at 10° C., of activity at optimal temperature",[11]; purified SI,15%
same,activity at 60° C.,[11]; purified SI,still active
same,isomaltulose production at pH 3 and pH 8,[11]; purified SI,some isomaltulose was still produced
same,optimal pH for isomaltulose production,[11]; purified SI,5
same,time until all sucrose was converted,[11]; purified SI,≤ 45 min
same,sucrose converted to isomaltulose (of consumed sucrose),"[11]; purified SI, complete conversion, remainder glucose and fructose",91%
same,optimal temperature for isomaltulose production,"[11]; purified SI, pH 6.0",37 °C
same,specific activity for isomaltulose production,[11]; purified fresh His-tagged enzymes,632 U mg^−1 protein
